8 molecules from PMC2665213 (Nucleic Acids Research, 2009) can be followed below.

Read-outs that look alike come from different tables or passages of the source.

Series [1] concerns the molecule itself. Nature of the series: SEC.
The target in series [2] is T1, TDP-43s (RRM1-RRM2) (mouse, UniProt Q921F2 101-265). Briefly: filter binding.
Series [3] deals with T2, TDP-43 RRM2 (mouse, UniProt Q921F2 192-265). Briefly: filter binding.
The target in series [4] is T3, TDP-43 RRM1 (mouse, UniProt Q921F2 101-191). Nature of the series: filter binding.
Series [5] deals with T2, TDP-43 RRM2. Nature of the series: crystal structure.
Series [6] deals with the molecule itself. Nature of the series: SEC. This is another data set of the same source. In general terms: In gel filtration, larger molecules generally elute earlier.
The target of series [7] is T2, TDP-43 RRM2. Briefly: filter binding. The source holds these as a separate data set.
In series [8] the target is T3, TDP-43 RRM1. Briefly: filter binding. This is another data set of the same source.
The target in series [9] is T1, TDP-43s (RRM1-RRM2). Nature of the series: filter binding. This is another data set of the same source.

B1: RRM1 (first RRM domain of mouse TDP-43) (domain or fragment, UniProt Q921F2 101-191, looked up)
chain: QKTSDLIVLGLPWKTTEQDLKDYFSTFGEVLMVQVKKDLKTGHSKGFGFVRFTEYETQVKVMSQRHMIDGRWCDCKLPNSKQSPDEPLRSR
Turning to B1, the “stoichiometry N” value in the series “SEC [1]” was 4.

UGUGUGUGUGUGUGUG (ssRNA) [(UG)8] gave a dissociation constant Kd with TDP-43s (RRM1-RRM2) [2] of 2.79 nM.

Take UGUGUG (ssRNA) [(UG)3]: the Kd in the series with TDP-43 RRM2 [3] came to 379 nM; with TDP-43 RRM1 [4], 4690 nM; with TDP-43s (RRM1-RRM2) [2], 3060 nM. Turning to GTTGAGCGTT (ssDNA) [10-mer crystal ssDNA], in the series with TDP-43 RRM2 [5], the binding result is “binds”. Turning to UGUGUGUG (ssRNA) [(UG)4], the Kd with TDP-43s (RRM1-RRM2) [2] amounted to 115 nM.

B2: RRM2 (second RRM domain of mouse TDP-43) (domain or fragment)
chain: MRGSHHHHHHGSKVFVGRCTEDMTAEELQQFFCQYGEVVDVFIPKPFRAFAFVTFADDKVAQSLCGEDLIIKGISVHISNAEPKHNKLN
Take B2: the “stoichiometry N” value in the series “SEC [6]” is 2; in the series “SEC [1]”, 4.

B3: TDP-43s (truncated mouse TAR DNA-binding protein 43 covering both RRM domains) (domain or fragment)
chain: MRGSHHHHHHGSQKTSDLIVLGLPWKTTEQDLKDYFSTFGEVLMVQVKKDLKTGHSKGFGFVRFTEYETQVKVMSQRHMIDGRWCDCKLPNSKQSPDEPLRSRKVFVGRCTEDMTAEELQQFFCQYGEVVDVFIPKPFRAFAFVTFADDKVAQSLCGEDLIIKGISVHISNAEPKHNKLN
For the molecule B3, the “stoichiometry N” value in the series “SEC [1]” stood at 2.

Regarding UGUGUGUGUGUG (ssRNA) [(UG)6], the dissociation constant Kd was found to be 4240 nM in the series with TDP-43 RRM2 [7], 65.2 nM with TDP-43 RRM1 [8] and 14.2 ± 1.4 nM with TDP-43s (RRM1-RRM2) [9].

A word on the stoichiometry N: it is the number of molecules, sites or subunits per partner or assembly. As a reminder, the Kd is the free concentration of one partner at which half of the binding sites on the other are occupied at equilibrium, for simple one-to-one binding. Low values mean tighter binding, high ones weaker binding.
